Experimental findings from PMC9381478 (Cellular and Molecular Life Sciences: CMLS, 2022) are described below.

The labels stand for the following.
T1: Spd1 (full-length) (S. pombe, UniProt Q10585 1-124)
T1 construct: Spd1 of S. pombe; also called 15N-Spd1
T1 sequence (looked up): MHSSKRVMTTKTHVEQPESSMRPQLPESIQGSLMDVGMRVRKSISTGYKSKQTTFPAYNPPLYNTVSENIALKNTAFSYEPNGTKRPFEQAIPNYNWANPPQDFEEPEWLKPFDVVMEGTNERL

B1: S. pombe ubiquitin with an N-terminal 6xhistidine-tag, TEV-cleavage site and an N-terminal free cysteine (natural protein)
chain: not shown
notes: ubiquitin of S. pombe, the cut product of its precursors; An added free cysteine stands N-terminal of ubiquitin together with the tag and the TEV linker; Used 15N-labelled or unlabelled; also called 15N-labeled ubiquitin; 15N-ubiquitin; source: E. coli BL21(DE3), purified (nickel Sepharose, SEC); not shown: His6, N-terminal, kept; TEV cleavage site, N-terminal, kept
B2: Dss1 N71C (mentioned as "Dss1 WT") (natural protein, S. pombe, UniProt O14140 1-71, looked up)
chain: MSRAALPSLENLEDDDEFEDFATENWPMKDTELDTGDDTLWENNWDDEDIGDDDFSVQLQAELKKKGVAAC
notes: Dss1 (deleted in split hand/split foot 1) of S. pombe; Used unlabelled, 15N- or 13C,15N-labelled; also called full-length Dss1; WT Dss1; source: E. coli BL21(DE3), purified (nickel Sepharose, ULP1 cleavage, reversed phase); not shown: His6-SUMO, N-terminal, cleaved
B3: wild-type Dss1 peptide (peptide)
peptide: Ac-GDDTLWENNWDDEDI-NH2
notes: also called WT Dss1 peptide; UBS1 from Dss1; source: synthetic peptide, bought: TAG Copenhagen
B4: PepDWD (peptide)
peptide: Ac-DDTLWWEDDWWDDED-NH2
notes: PepDW with the two asparagines of the core substituted with aspartates; also called DWD peptide; source: synthetic peptide, bought: TAG Copenhagen
B5: PepDMD (peptide)
peptide: Ac-DLWEDDWDLWEDDWD-NH2
notes: PepDM with the asparagines of the core substituted with aspartates; also called DMD peptide; source: synthetic peptide, bought: TAG Copenhagen
B6: PepDM (peptide)
peptide: Ac-DLWENNWDLWENNWD-NH2
notes: core motif WENNW of S. pombe Dss1 (O14140) repeated; also called double motif; Pep43 (as soluble peptide); source: synthetic peptide, bought: TAG Copenhagen
B7: PepDW (peptide)
peptide: Ac-DDTLWWENNWWDDED-NH2
notes: UBS1 of S. pombe Dss1 (O14140) with two extra tryptophans; also called double tryptophan; Pep42 (as soluble peptide); source: synthetic peptide, bought: TAG Copenhagen

Usually Kd stands for the constant that tells how readily two partners part at equilibrium.

The first test has as its target T1, Spd1 (full-length). As to the kind of experiment: NMR titration; 30 µM 15N-Spd1 with 560 µM ubiquitin added; CSPs mapped on Spd1. To be noted: both partners purified.
Turning to B1, the binding result is reported as “binds”.

For a further test, the target named is B1. In words: NMR titration; 100 µM 15N-ubiquitin, unlabelled peptide or protein added or titrated (peptides to 1 mM, WT Dss1 peptide to 5 mM); 20 mM NaH2PO4, 150 mM NaCl, 5 mM TCEP, pH 7.5; CSPs of 1H-15N-HSQC, global fit to a one-site model. Particulars: both partners purified.
In turn, B2 registered a Kd of 380 ± 40 µM.

Consider B3, for which the Kd is 3000 ± 200 µM.

B4 returned a Kd of 600 ± 30 µM. Compared with the last molecule, the Kd is about 5-fold lower.

Molecule B5 gave a Kd of 480 ± 40 µM.

B6 returned a Kd of 1300 ± 120 µM.

Molecule B7 showed a Kd of 1200 ± 90 µM.
